Measurements from patent US20040037843A1.

target: HLA-A*2401 (purified HLA class I molecule) (human); assay: competition with 125I-labelled standard peptide for purified HLA, gel filtration; conditions: not given

Substance	relative binding ratio (IC50 of standard peptide / IC50 of test peptide)
PSM position 227, 9 amino acids (peptide)	0.44
PSA position 2, 9 amino acids (peptide)	2.1
PSA position 9, 9 amino acids (peptide)	0.11
PAP position 297, 10 amino acids (peptide)	0.0001
PSA position 224, 9 amino acids (peptide)	0.0001
PSA position 54, 10 amino acids (peptide)	0.0007
PSM position 624, 10 amino acids (peptide)	3.2
PSM position 668, 9 amino acids (peptide)	0.0075

Other lines, results leading:

relative binding ratio (IC50 of standard peptide / IC50 of test peptide)	Substance
0.0001	PSM position 638, 9 amino acids (peptide)
0.36	PSA position 9, 10 amino acids (peptide)
0.0062	PSA position 2, 10 amino acids (peptide)
0.77	PSM position 178, 9 amino acids (peptide)
0.12	PSA position 96, 11 amino acids (peptide)
0.23	PSM position 74, 10 amino acids (peptide)

target: HLA-A*6802 (human); assay: as above; conditions: not given

relative binding ratio	Substance
0.0013	PSM position 168, 10 amino acids (peptide)

target: HLA-A*2401 (human); assay: not given; conditions: scale: ratio

Substance	relative binding ratio (A*2401)
PSA (Prostate Specific Antigen) peptide, position 2, 10 amino acids	0.0062
PSM (Prostate Specific Membrane Antigen) peptide, position 624, 10 amino acids	3.2
PSA (Prostate Specific Antigen) peptide, position 9, 9 amino acids	0.11

Next, values leading:

relative binding ratio (A*2401)	Substance
2.1	PSA (Prostate Specific Antigen) peptide, position 2, 9 amino acids
0.36	PSA (Prostate Specific Antigen) peptide, position 9, 10 amino acids

target: HLA-A*0101 (purified HLA class I molecule) (human); assay: not given; conditions: not given

relative binding ratio (IC50 of standard peptide / IC50 of test peptide)	Substance
0.016	PSM peptide, position 196, 10 amino acids (A1 supermotif)

target: HLA-A*2401 (purified HLA class I molecule) (human); assay: not given; conditions: not given

relative binding ratio (IC50 of standard peptide / IC50 of test peptide)	Substance
0.0002	PSM (prostate specific membrane antigen) peptide, position 582, 10 amino acids
0.019	PSM (prostate specific membrane antigen) peptide, position 31, 9 amino acids
0.001	PSM (prostate specific membrane antigen) peptide, position 621, 9 amino acids (from UniProt Q04609 621-629)
1.1	PSM (prostate specific membrane antigen) peptide, position 565, 10 amino acids
0.0026	PSM (prostate specific membrane antigen) peptide, position 32, 10 amino acids

target: HLA-A*0101 (human); assay: not given; conditions: not given

relative binding ratio (IC50 of standard peptide / IC50 of test peptide)	Substance
0.016	PSM peptide, position 196, 10 amino acids

target: HLA-A*2401 (purified HLA class I molecule) (human); assay: competition with 125I-labelled probe peptide on purified HLA, gel filtration; conditions: not given

Substance	relative binding ratio (IC50 of standard peptide / IC50 of test peptide)
PSA peptide, position 54, 10 amino acids	0.0007
PAP peptide, position 355, 10 amino acids	0.0037
PSM peptide, position 638, 9 amino acids	0.0001
PAP peptide, position 163, 10 amino acids	0.0001

Next, values leading:

relative binding ratio (IC50 of standard peptide / IC50 of test peptide)	Substance
0.024	PAP peptide, position 309, 10 amino acids
0.77	PSM peptide, position 178, 9 amino acids
0.11	PAP peptide, position 183, 9 amino acids
0.0001	PAP peptide, position 297, 10 amino acids

target: HLA-A*2401 (human); assay: not given; conditions: not given

relative binding ratio (IC50 of standard peptide / IC50 of test peptide)	Substance
0.054	PSM position 409, 10 amino acids (…) (peptide)
0.031	PSA position 190, 9 amino acids (…) (peptide)

target: HLA-A*2401 (human); assay: competition with 125I-labelled probe peptide for purified HLA, gel filtration; conditions: not given

Substance	relative binding ratio (IC50 of standard peptide / IC50 of test peptide)
PSM position 227, 9 amino acids (peptide)	0.44
PSM position 606, 9 amino acids (peptide)	12
PSM position 668, 9 amino acids (peptide)	0.0075

Results, then the substance that gave them:

relative binding ratio (IC50 of standard peptide / IC50 of test peptide)	Substance
0.0022	PAP position 70, 10 amino acids (peptide)
0.12	PSA position 96, 11 amino acids (peptide)
0.23	PSM position 74, 10 amino acids (peptide)

target: HLA-A*2401 (human); assay: as above; conditions: not given; remark: another data set of the same source

Substance	relative binding ratio (IC50 of standard peptide / IC50 of test peptide)
PSM position 621, 9 amino acids (peptide)	0.001
PSA position 98, 9 amino acids (peptide)	0.0001
PSM position 582, 10 amino acids (peptide)	0.0002
PSM position 409, 10 amino acids (peptide)	0.054
PSM position 32, 10 amino acids (peptide)	0.0026
PSM position 606, 9 amino acids (peptide)	12
PSM position 448, 9 amino acids (peptide)	0.019

Results, then the substance that gave them:

relative binding ratio (IC50 of standard peptide / IC50 of test peptide)	Substance
0.031	PSA position 190, 9 amino acids (peptide)
0.019	PSM position 31, 9 amino acids (printed as 8 in Table XVIII) (peptide)
1.1	PSM position 565, 10 amino acids (peptide)

target: HLA-A*2401 (human); assay: not given; conditions: not given; remark: another data set of the same source

relative binding ratio (IC50 of standard peptide / IC50 of test peptide)	Substance
0.0007	PSA peptide, position 91, 9 amino acids (A24 supermotif)
0.0001	PSA peptide, position 224, 9 amino acids (A24 supermotif)

target: HLA-A*0206 (human); assay: competition with 125I-labelled standard peptide for purified HLA; conditions: not given

IC50	Substance
502 nM	peptide 1419.24, PSA.166.V10

target: HLA-A*6802 (human); assay: as above; conditions: not given

IC50	Substance
1540 nM	peptide 1129.10, PSM.288
976 nM	peptide 1126.01, PSM.663
